Results reported in article doi:10.1101/2024.12.16.628697.

Target: USP1/UAF1 (UniProt O94782)
Assay: global kinetic fit

UniProt O94782, sequence (O94782 21-785 G670A/G671A, chain 1 of 2): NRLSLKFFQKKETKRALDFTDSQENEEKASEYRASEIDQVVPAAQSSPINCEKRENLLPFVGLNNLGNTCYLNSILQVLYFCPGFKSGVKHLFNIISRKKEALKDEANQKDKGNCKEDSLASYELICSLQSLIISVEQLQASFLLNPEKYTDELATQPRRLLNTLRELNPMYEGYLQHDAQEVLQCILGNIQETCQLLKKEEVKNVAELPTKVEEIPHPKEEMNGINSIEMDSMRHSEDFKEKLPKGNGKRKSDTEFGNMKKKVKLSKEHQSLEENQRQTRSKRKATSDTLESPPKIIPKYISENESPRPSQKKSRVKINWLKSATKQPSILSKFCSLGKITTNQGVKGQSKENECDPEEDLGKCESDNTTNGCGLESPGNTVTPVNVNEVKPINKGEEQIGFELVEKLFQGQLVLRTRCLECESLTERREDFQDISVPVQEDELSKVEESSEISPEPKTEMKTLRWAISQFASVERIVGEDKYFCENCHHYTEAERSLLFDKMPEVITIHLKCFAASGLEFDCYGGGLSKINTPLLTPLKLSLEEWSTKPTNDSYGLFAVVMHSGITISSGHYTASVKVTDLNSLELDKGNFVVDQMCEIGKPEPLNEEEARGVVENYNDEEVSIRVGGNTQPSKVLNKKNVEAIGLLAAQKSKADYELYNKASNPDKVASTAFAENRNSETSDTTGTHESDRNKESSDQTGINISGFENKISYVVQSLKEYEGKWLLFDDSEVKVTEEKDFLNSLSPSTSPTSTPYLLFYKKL
UniProt O94782, sequence (Q8TAF3 9-677, chain 2 of 2, further chain): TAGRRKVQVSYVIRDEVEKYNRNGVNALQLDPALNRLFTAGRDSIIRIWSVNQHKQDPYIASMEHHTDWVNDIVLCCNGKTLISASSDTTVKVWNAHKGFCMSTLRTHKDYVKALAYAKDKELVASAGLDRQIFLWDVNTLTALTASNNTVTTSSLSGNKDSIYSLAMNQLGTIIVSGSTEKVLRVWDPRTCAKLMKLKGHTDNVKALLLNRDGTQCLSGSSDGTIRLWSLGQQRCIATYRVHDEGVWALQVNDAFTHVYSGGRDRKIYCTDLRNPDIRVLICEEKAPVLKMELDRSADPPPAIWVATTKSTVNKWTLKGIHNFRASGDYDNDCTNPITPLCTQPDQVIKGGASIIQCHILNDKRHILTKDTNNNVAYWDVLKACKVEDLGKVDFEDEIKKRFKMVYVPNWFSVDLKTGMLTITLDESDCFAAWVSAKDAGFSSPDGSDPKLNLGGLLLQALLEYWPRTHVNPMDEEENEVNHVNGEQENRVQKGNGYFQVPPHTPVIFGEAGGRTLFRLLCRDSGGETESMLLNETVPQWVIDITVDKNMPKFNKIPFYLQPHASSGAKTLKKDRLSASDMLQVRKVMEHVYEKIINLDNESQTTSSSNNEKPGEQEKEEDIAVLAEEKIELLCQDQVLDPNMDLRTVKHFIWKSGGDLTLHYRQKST

koff: 1240 s⁻¹
Substance: K63-linked diubiquitinated PCNA (K63-PCNA-Ub2) (from UniProt P12004 1-261; P0CG48 1-76; P0CG48 1-76) (complex)
